Assay results reported in patent publication US20230295310A1 (ABCELLERA BIOLOGICS, published 2023).
Changes are numbered by the printed parent chain.

B1: mAb 141 (antibody, V domains shown)
VH: QVQLVQSGAEVKKPGASVKVSCKASGYTFTSYYIHWVRQAPGQGLDWMGIINPSGGITGYAQKLQGRVTMTRDTSTTTVYMELSSLRSDDTAVYYCARGVRGNYYYYYMDVWGKGTTVTVSS
VL: EIVLTQSPDFQSVTPKEKVTITCRASQSIGSKLHWYQQKPDQSPKLLIKYASQSFSGVPSRFSGSGSGTDFNLTINSLEAEDAATFYCHQSSGLPYTFGQGTKLEIK
B2: mAb 145 (antibody, V domains shown)
VH: B1 VH with S31N, L64F
VL: B1 VL with Y50F, A80P
B3: mAb 128 (antibody, V domains shown)
VH: EVQLVESGGGLVQPGRSLRLSCAASGFTFDDYTMHWVRQAPGKGLEWVSGISWNSGSIGYADSVKGRFTISRDNAKNSLYLQMNSLRAEDTALYYCAKDSSGYGYYYYYSMDVWGKGTTVTVSS
VL: EIVMTQSPATLSVSPGERATLSCRASQSVSSNLAWYQQKPGQAPRLLIYGASTRATGIPARFSGSGSGTEFTLTISSLQSEDFAVYYCQLYYNWPHFGQGTRLAIK
B4: mAb 119 (antibody, V domains shown)
VH: B3 VH with A97S, Y107L, Y108N, M111L
VL: EIVMTQSPATLSVSPGERATLSCRASQSVSNLAWYQQKPGQAPRLLIYGASTRATGIPARFSGSGSGTEFTLTISSLQSEDFAVYYCQQYNNWPHFGQGTRLQIK
B5: mAb 172 (antibody, V domains shown)
VH: B3 VH with A23T, A24T, A40V, G50D, I58V, A97V, Y105H, Y107F, Y108H, S110Y
VL: DIQMTQSPSSLSASVGDRVTITCRASQSISNYLNWYQVKPGKAPKVLIYAASSLQSGVPSRFSGSGSGTDFTLTISSLQPEDFVSYYCHQSYNAPITFGQGTRLESK
notes: VH/VL only
B6: mAb 159 (antibody, V domains shown)
VH: B3 VH with D30N, D31G, A40V, I58V, Y80F, Y105H, S110Y
VL: B3 VL with S30R, S31N, V85L, Y92N, A104E
B7: mAb 118 (antibody, V domains shown)
VH: B3 VH with A97S, Y107L, Y108N, M111L
VL: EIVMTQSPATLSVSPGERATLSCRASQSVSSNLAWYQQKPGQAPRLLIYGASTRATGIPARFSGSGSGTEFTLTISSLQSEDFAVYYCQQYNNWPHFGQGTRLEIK
B8: mAb 160 (antibody, V domains shown)
VH: B3 VH with A24V, D30N, A40V, Y95F, Y105H, S110Y, K116R
VL: B3 VL with S30R, S31K, Y92N, A104E
B9: mAb 162 (antibody, V domains shown)
VH: B3 VH with D31N, T33A, Q82E, M83L, Y108N, S110Y
VL: B3 VL with S30R, R61K, L90Y, A104E
B10: mAb 173 (antibody, V domains shown)
VH: B3 VH with A40V, G50D, I58V, A97V, Y105H, Y107F, Y108H, S110Y
VL: B5 VL with A94T, S106I
notes: VH/VL only
B11: mAb 126 (antibody, V domains shown)
VH: B3 VH with D30N, A40V, G59D, S110Y
VL: B3 VL with S31I, Y92H, A104E
B12: mAb 137 (antibody, V domains shown)
VH: QVQLVESGGGVVQPGRSLRLSCAASGFTFSTYGMHWVRQAPGKGLEWVAVIWYDGSHKYYADSVKGRFTISRDNSKKTLYLQMNSLRAEDTGIYYCARTGISGNMSYFYFDHWGQGILVTVSS
VL: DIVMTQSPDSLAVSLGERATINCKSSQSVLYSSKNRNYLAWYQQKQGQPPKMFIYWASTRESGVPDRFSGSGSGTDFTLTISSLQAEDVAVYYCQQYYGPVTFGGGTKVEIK
B13: mAb 136 (antibody, V domains shown)
VH: QVQLVESGGGVVQPGRSLRLSCAASGFTFSIYGMHWVRQAPGKGLEWVAVIWHDGSNKYYADSVKGRFTISRDNSKNTLYLQMNSLRAEDTAVYYCARTGITGTKAYFYFDYWGQGTLVTVSS
VL: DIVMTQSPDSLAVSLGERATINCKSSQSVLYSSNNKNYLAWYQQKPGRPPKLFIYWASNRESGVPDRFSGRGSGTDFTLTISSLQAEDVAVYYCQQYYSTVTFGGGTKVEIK
B14: mAb 142 (antibody, V domains shown)
VH: B13 VH with I31S, H53Y, K105T, Y112S
VL: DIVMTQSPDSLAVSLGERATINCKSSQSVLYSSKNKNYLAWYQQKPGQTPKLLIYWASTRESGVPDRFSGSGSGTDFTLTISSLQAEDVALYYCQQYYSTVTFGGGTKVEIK
B15: mAb 157 (antibody, V domains shown)
VH: EVQLVESGGGLVKTGGSLRLSCVASGFSFKKAWMNWVRQAPGKGLEWVGRIKRTADGGATDYAAPVKGRFTLSRDDSKNTLYLQMNSLKTEDTAVYYCTTLDSSSWYVGYYYMDVWGKGTTVTVSS
VL: DIHMTQAPSSVSASVGDRVTFTCRASQDINNWLAWYQQKPGKAPKLLIYTASSLQSGVPSRFSGSGSGTDFTLTISSLQPEDFATYYCQQAHSLPITFGQGTRLGIK
B16: mAb 130 (antibody, V domains shown)
VH: B15 VH with T54N, A55S, G68D
VL: B15 VL with A7S, V15L, K39R
B17: mAb 127 (antibody, V domains shown)
VH: B15 VH with L18H, T54N, A55S, A59T, T71I
VL: B15 VL with H3Q, A7S, F21I, L46I, S53N, S77T, Y87F, S93G, G105E
B18: mAb 129 (antibody, V domains shown)
VH: B15 VH with G10D, T54N, A55T, G68D
VL: B15 VL with A7S, V15L, K45R, E81D, K107E
B19: mAb 164 (antibody, V domains shown)
VH: B15 VH with T54N, A55T, A59T, T60A, N79K, Y82F, W106Y
VL: B15 VL with H3Q, A7S, F21I, N30K, S76G, G105E
B20: mAb 165 (antibody, V domains shown)
VH: B15 VH with T54N, A55T, A59T, T60A, N79R, W106R
VL: B15 VL with H3Q, A7S, T20I, F21I, A43V, S76G, G105E
B21: mAb 166 (antibody, V domains shown)
VH: B15 VH with K43R, T54N, A55T, A59T, T80M, W106L
VL: B15 VL with H3Q, A7S, F21I, Y87F, G105E, K107T
B22: mAb 169 (antibody, V domains shown)
VH: B15 VH with T54N, A55T, A59T, T60A, N79K, Y82F, W106Y
VL: B15 VL with H3Q, A7S, T20I, F21I, T72I, S76G, G105E
B23: mAb 163 (antibody, V domains shown)
VH: B15 VH with A40V, T54N, A55T, A59T, T60A, N79K, Y82F, W106Y
VL: B15 VL with H3Q, A7S, T20I, F21I, S76G, G105E

Experiments:
[1] = biological target: T1, cynomolgus monkey CD3 expressed on primary T cells (cynomolgus monkey, UniProt Q95LI5 22-198; Q95LI8 22-171; Q95LI7 23-181); experiment: flow cytometry, 25 nM, cyno primary T cells
T1 construct: whole, on cells; CD3 complex on purified cynomolgus monkey T cells; also called cyno CD3
T1 sequence (Q95LI5 22-198, chain 1 of 3): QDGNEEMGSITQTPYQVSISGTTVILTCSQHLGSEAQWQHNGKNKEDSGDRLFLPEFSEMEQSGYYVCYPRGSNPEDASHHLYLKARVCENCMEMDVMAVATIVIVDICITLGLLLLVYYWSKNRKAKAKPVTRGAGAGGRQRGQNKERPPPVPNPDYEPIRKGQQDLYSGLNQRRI
T1 sequence (Q95LI8 22-171, chain 2 of 3): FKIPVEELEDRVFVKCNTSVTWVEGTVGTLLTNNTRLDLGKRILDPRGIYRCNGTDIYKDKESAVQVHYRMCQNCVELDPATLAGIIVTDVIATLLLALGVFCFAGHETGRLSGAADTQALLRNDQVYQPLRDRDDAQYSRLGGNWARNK
T1 sequence (Q95LI7 23-181, chain 3 of 3): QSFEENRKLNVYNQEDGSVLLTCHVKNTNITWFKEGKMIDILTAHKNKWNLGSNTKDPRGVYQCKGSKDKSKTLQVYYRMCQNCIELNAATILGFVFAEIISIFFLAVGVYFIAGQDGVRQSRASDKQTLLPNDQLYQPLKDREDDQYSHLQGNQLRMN
How it was run: (§1)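 Binding readout: MFI divided by isotype-control MFI (fold over isotype), positive at ≥10. Cells were stained with 25 nM antibody, 30 min, 4° C, in PBS/2% FBS before flow cytometry.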

[2] = biological target: T2, human CD3 expressed on cells (human, UniProt P07766 23-207; P04234 22-171; P09693 23-182); experiment: flow cytometry, 25 nM
T2 construct: whole, on cells; CD3 complex on Jurkat cells and on human primary T cells
T2 sequence (P07766 23-207, chain 1 of 3): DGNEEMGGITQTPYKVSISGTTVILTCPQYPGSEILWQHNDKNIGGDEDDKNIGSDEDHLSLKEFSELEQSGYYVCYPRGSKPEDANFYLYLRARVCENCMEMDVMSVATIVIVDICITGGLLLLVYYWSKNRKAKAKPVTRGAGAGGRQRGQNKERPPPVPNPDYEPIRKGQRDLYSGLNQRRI
T2 sequence (P04234 22-171, chain 2 of 3): as the sequence (Q95LI8 22-171, chain 2 of 3) above, with V5I, K15N, V20I, T32S, N33D, N34I, A64T, N74S, L83V, R141H counted along it
T2 sequence (P09693 23-182, chain 3 of 3): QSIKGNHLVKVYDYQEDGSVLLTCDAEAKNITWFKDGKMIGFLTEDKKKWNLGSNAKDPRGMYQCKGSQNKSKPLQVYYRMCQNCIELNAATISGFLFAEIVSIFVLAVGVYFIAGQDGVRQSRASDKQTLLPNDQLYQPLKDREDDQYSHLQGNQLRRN
How it was run: as §1

[3] = biological target: T3, human CD3 expressed on cells (Jurkat cells; human primary T cells) (human, UniProt P07766 23-207; P04234 22-171; P09693 23-182); experiment: flow cytometry, 25 nM, Jurkat cells
T3 construct: whole, on cells
T3 sequence (P07766 23-207, chain 1 of 3): as the sequence (P07766 23-207, chain 1 of 3) above
T3 sequence (P04234 22-171, chain 2 of 3): as the sequence (Q95LI8 22-171, chain 2 of 3) above, with V5I, K15N, V20I, T32S, N33D, N34I, A64T, N74S, L83V, R141H counted along it
T3 sequence (P09693 23-182, chain 3 of 3): as the sequence (P09693 23-182, chain 3 of 3) above
Method: (§2) Purified antibodies were confirmed to bind CD3 expressed on cells using the CytoFLEX S or LX flow cytometers (Beckman Coulter). Antibodies were diluted to 25 nM in FACS buffer (PBS+2% FBS) and were incubated with CD3-expressing cells for 30 minutes at 4° C. […] The median fluorescence intensity of the binding signal for each antibody was normalized to the isotype control to obtain a fold over isotype value. An antibody with a fold over isotype (FOI) of ≥10 was considered to be positive for binding.

[4] = biological target: T3, human CD3 expressed on cells (Jurkat …); experiment: flow cytometry, 25 nM, human primary T cells
Method: as §2

| Binder | binding result [1] | Human primary T Cell Binding (FOI) [2] [FOI] | Jurkat Cell Binding (FOI) [2] [FOI] | Binding (FOI) [3] [FOI] | Binding (FOI) [4] [FOI] |
| --- | --- | --- | --- | --- | --- |
| B1 | no binding (tested: FOI >=10 = positive) | 310 | 183 |  |  |
| B2 | no binding (tested: FOI >=10 = positive) | 217 | 191 |  |  |
| B3 | no binding (tested: FOI >=10 = positive) | 101 | 97.1 |  |  |
| B4 | no binding (tested: FOI >=10 = positive) | 95.4 | 90.4 |  |  |
| B5 |  |  |  | 111 | 167 |
| B6 | no binding (tested: FOI >=10 = positive) | 171 | 125 |  |  |
| B7 | no binding (tested: FOI >=10 = positive) | 84.7 | 83.8 |  |  |
| B8 | no binding (tested: FOI >=10 = positive) | 169 | 115 |  |  |
| B9 | no binding (tested: FOI >=10 = positive) | 160 | 111 |  |  |
| B10 |  |  |  | 109 | 169 |
| B11 | no binding (tested: FOI >=10 = positive) | 97.6 | 97 |  |  |
| B12 | no binding (tested: FOI >=10 = positive) | 158 | 151 |  |  |
| B13 | no binding (tested: FOI >=10 = positive) | 86 | 90.9 |  |  |
| B14 | no binding (tested: FOI >=10 = positive) | 59.6 | 65.5 |  |  |
| B15 | no binding (tested: FOI >=10 = positive) | 265 | 163 |  |  |
| B16 | no binding (tested: FOI >=10 = positive) | 165 | 155 |  |  |
| B17 | no binding (tested: FOI >=10 = positive) | 172 | 155 |  |  |
| B18 | no binding (tested: FOI >=10 = positive) | 169 | 157 |  |  |
| B19 | no binding (tested: FOI >=10 = positive) | 237 | 137 |  |  |
| B20 | no binding (tested: FOI >=10 = positive) | 241 | 154 |  |  |
| B21 | no binding (tested: FOI >=10 = positive) | 266 | 159 |  |  |
| B22 | no binding (tested: FOI >=10 = positive) | 264 | 173 |  |  |
| B23 | no binding (tested: FOI >=10 = positive) | 278 | 118 |  |  |
